From US9580733B2, “Methods of producing 6-carbon chemicals via methyl-ester shielded carbon chain elongation” (INVISTA North America S.á r.l., priority 2012, dated 2017)

B1: SEQ ID NO 1: Escherichia coli thioesterase encoded by tesB (GenBank Accession No. AAA24665.1), N-terminal His-tagged (protein, listed as Escherichia coli)
chain: MSQALKNLLTLLNLEKIEEGLFRGQSEDLGLRQVFGGQVVGQALYAAKETVPEERLVHSFHSYFLRPGDSKKPIIYDVETLRDGNSFSARRVAAIQNGKPIFYMTASFQAPEAGFEHQKTMPSAPAPDGLPSETQIAQSLAHLLPPVLKDKFICDRPLEVRPVEFHNPLKGHVAEPHRQVWIRANGSVPDDLRVHQYLLGYASDLNFLPVALQPHGIGFLEPGIQIATIDHSMWFHRPFNLNEWLLYSVESTSASSARGFVRGEFYTQDGVLVASTVQEGVMRNHN
modifications: N-terminal His tag
B2: SEQ ID NO 2: Escherichia coli thioesterase encoded by YciA (GenBank Accession No. AAB60068.1), N-terminal His-tagged (protein, listed as Escherichia coli)
chain: MSTTHNVPQGDLVLRTLAMPADTNANGDIFGGWLMSQMDIGGAILAKEIAHGRVVTVRVEGMTFLRPVAVGDVVCCYARCVQKGTTSVSINIEVWVKKVASEPIGQRYKATEALFKYVAVDPEGKPRALPVE
modifications: N-terminal His tag
B3: SEQ ID NO 9: Pseudomonas aeruginosa ω-transaminase (Genbank Accession No. AAG08191.1) (protein, listed as Pseudomonas aeruginosa)
chain: MNARLHATSPLGDADLVRADQAHYMHGYHVFDDHRVNGSLNIAAGDGAYIYDTAGNRYLDAVGGMWCTNIGLGREEMARTVAEQTRLLAYSNPFCDMANPRAIELCRKLAELAPGDLDHVFLTTGGSTAVDTAIRLMHYYQNCRGKRAKKHVITRINAYHGSTFLGMSLGGKSADRPAEFDFLDERIHHLACPYYYRAPEGLGEAEFLDGLVDEFERKILELGADRVGAFISEPVFGSGGVIVPPAGYHRRMWELCQRYDVLYISDEVVTSFGRLGHFFASQAVFGVQPDIILTAKGLTSGYQPLGACIFSRRIWEVIAEPDKGRCFSHGFTYSGHPVACAAALKNIEIIEREGLLAHADEVGRYFEERLQSLRDLPIVGDVRGMRFMACVEFVADKASKALFPESLNIGEWVHLRAQKRGLLVRPIVHLNVMSPPLILTREQVDTVVRVLRESIEETVEDLVRAGHR
B4: SEQ ID NO 10: Pseudomonas syringae ω-transaminase (Genbank Accession No. AAY39893.1) (protein, listed as Pseudomonas syringae)
chain: MSANNPQTLEWQALSSEHHLAPFSDYKQLKEKGPRIITRAEGVYLWDSEGNKILDGMSGLWCVAIGYGREELADAASKQMRELPYYNLFFQTAHPPVLELAKAISDIAPEGMNHVFFTGSGSEGNDTMLRMVRHYWALKGQPNKKTIISRVNGYHGSTVAGASLGGMTYMHEQGDLPIPGVVHIPQPYWFGEGGDMTPDEFGIWAAEQLEKKILELGVENVGAFIAEPIQGAGGVIVPPDSYWPKIKEILSRYDILFAADEVICGFGRTSEWFGSDFYGLRPDMMTIAKGLTSGYVPMGGLIVRDEIVAVLNEGGDFNHGFTYSGHPVAAAVALENIRILREEKIVERVRSETAPYLQKRLRELSDHPLVGEVRGVGLLGAIELVKDKTTRERYTDKGAGMICRTFCFDNGLIMRAVGDTMIIAPPLVISFAQIDELVEKARTCLDLTLAVLQG
B5: SEQ ID NO 12: Escherichia coli ω-transaminase, gene product of YgjG (Genbank Accession No. AAA57874.1) (protein, listed as Escherichia coli)
chain: MNRLPSSASALACSAHALNLIEKRTLDHEEMKALNREVIEYFKEHVNPGFLEYRKSVTAGGDYGAVEWQAGSLNTLVDTQGQEFIDCLGGFGIFNVGHRNPVVVSAVQNQLAKQPLHSQELLDPLRAMLAKTLAALTPGKLKYSFFCNSGTESVEAALKLAKAYQSPRGKFTFIATSGAFHGKSLGALSATAKSTFRKPFMPLLPGFRHVPFGNIEAMRTALNECKKTGDDVAAVILEPIQGEGGVILPPPGYLTAVRKLCDEFGALMILDEVQTGMGRTGKMFACEHENVQPDILCLAKALGGGVMPIGATIATEEVFSVLFDNPFLHTTTFGGNPLACAAALATINVLLEQNLPAQAEQKGDMLLDGFRQLAREYPDLVQEARGKGMLMAIEFVDNEIGYNFASEMFRQRVLVAGTLNNAKTIRIEPPLTLTIEQCELVIKAARKALAAMRVSVEEA
B6: SEQ ID NO 8: Chromobacterium violaceum ω-transaminase (Genbank Accession No. AAQ59697.1) (protein, listed as Chromobacterium violaceum)
chain: MQKQRTTSQWRELDAAHHLHPFTDTASLNQAGARVMTRGEGVYLWDSEGNKIIDGMAGLWCVNVGYGRKDFAEAARRQMEELPFYNTFFKTTHPAVVELSSLLAEVTPAGFDRVFYTNSGSESVDTMIRMVRRYWDVQGKPEKKTLIGRWNGYHGSTIGGASLGGMKYMHEQGDLPIPGMAHIEQPWWYKHGKDMTPDEFGVVAARWLEEKILEIGADKVAAFVGEPIQGAGGVIVPPATYWPEIERICRKYDVLLVADEVICGFGRTGEWFGHQHFGFQPDLFTAAKGLSSGYLPIGAVFVGKRVAEGLIAGGDFNHGFTYSGHPVCAAVAHANVAALRDEGIVQRVKDDIGPYMQKRWRETFSRFEHVDDVRGVGMVQAFTLVKNKAKRELFPDFGEIGTLCRDIFFRNNLIMRACGDHIVSAPPLVMTRAEVDEMLAVAERCLEEFEQTLKARGLA

Experiment: Thioesterase enzyme activity assay, adipyl-CoA to adipate
Type: biochemical
Conditions: 667 μM adipyl-CoA, pH 7.4, 37° C., 20 min, vs empty vector control, FIG. 8
Procedure: A sequence encoding an N-terminal His-tag was added to the genes from Escherichia coli encoding the thioesterases of SEQ ID NOs: 1 and 2 respectively (see FIG. 7A), such that an N-terminal HIS tagged thioesterase could be produced. Each of the resulting modified genes was cloned into a pET15b expression vector under control of the T7 promoter. Each expression vector was transformed into a BL21[DE3] E. coli host. The resulting recombinant E. coli strains were cultivated at 37° C. in a 500 mL shake flask culture containing 50 mL Luria Broth (LB) media and antibiotic selection pressure, with shaking at 230 rpm. The culture was induced overnight at 17° C. using 0.5 mM IPTG.
The pellet from the induced shake flask culture was harvested via centrifugation. The pellet was resuspended and lysed in Y-per™ solution (ThermoScientific, Rockford, Ill.). The cell debris was separated from the supernatant via centrifugation. […]
The enzyme activity assay was performed in triplicate in a buffer composed of 50 mM phosphate buffer (pH=7.4), 0.1 mM Ellman's reagent, and 667 μM of adipyl-CoA (as substrate). […] The release of Coenzyme A was monitored by absorbance at 412 nm. The absorbance associated with the substrate only control, which contained boiled enzyme, was subtracted from the active enzyme assay absorbance and compared to the empty vector control.

Row | Molecule | thioesterase activity for converting adipyl-CoA to adipate (release of Coenzyme A, absorbance at 412 nm)
1 | B1 | accepted adipyl-CoA as substrate
2 | B2 | accepted adipyl-CoA as substrate

Experiment: ω-transaminase activity assay, reverse direction, 6-aminohexanoate to adipate semialdehyde
Type: biochemical
Conditions: cell free extract, 10 mM 6-aminohexanoate, 10 mM pyruvate, 25° C., 24 h, vs empty vector control, FIG. 15
Procedure: (§1) A nucleotide sequence encoding a His-tag was added to the genes from Chromobacterium violaceum, Pseudomonas aeruginosa, Pseudomonas syringae, Rhodobacter sphaeroides, and Vibrio fluvialis encoding the ω-transaminases of SEQ ID NOs: 7, 8, 9, 10 and 12, respectively (see FIGS. 7E and 7F) such that N-terminal HIS tagged ω-transaminases could be produced. Each of the resulting modified genes was cloned into a pET21a expression vector under control of the T7 promoter and each expression vector was transformed into a BL21[DE3] E. coli host. The resulting recombinant E. coli strains were cultivated at 37° C. in a 250 mL shake flask culture containing 50 mL LB media and antibiotic selection pressure, with shaking at 230 rpm. Each culture was induced overnight at 16° C. using 1 mM IPTG.
(§2) The pellet from each induced shake flask culture was harvested via centrifugation. Each pellet was resuspended and lysed via sonication. The cell debris was separated from the supernatant via centrifugation and the cell free extract was used immediately in enzyme activity assays.
Enzyme activity assays in the reverse direction (i.e., 6-aminohexanoate to adipate semialdehyde) were performed in a buffer composed of a final concentration of 50 mM HEPES buffer (pH=7.5), 10 mM 6-aminohexanoate, 10 mM pyruvate and 100 μM pyridoxyl 5′ phosphate. Each enzyme activity assay reaction was initiated by adding cell free extract of the ω-transaminase gene product or the empty vector control to the assay buffer containing the 6-aminohexanoate and incubated at 25° C. for 24 h, with shaking at 250 rpm. The formation of L-alanine from pyruvate was quantified via RP-HPLC.

Row | Molecule | ω-transaminase activity for converting 6-aminohexanoate to adipate semialdehyde (formation of L-alanine from pyruvate, RP-HPLC)
3 | B3 | accepted 6-aminohexanote as substrate
4 | B4 | accepted 6-aminohexanote as substrate
5 | B5 | accepted 6-aminohexanote as substrate

Experiment: ω-transaminase activity assay, forward direction, adipate semialdehyde to 6-aminohexanoate
Type: biochemical
Conditions: cell free extract, 10 mM adipate semialdehyde, 10 mM L-alanine, 25° C., 4 h, vs empty vector control, FIG. 16
Procedure: as §1, §2
Enzyme activity in the forward direction (i.e., adipate semialdehyde to 6-aminohexanoate) was confirmed for the transaminases of SEQ ID NO 7, SEQ ID NO 8, SEQ ID NO 9, SEQ ID NO 10 and SEQ ID NO 12. Enzyme activity assays were performed in a buffer composed of a final concentration of 50 mM HEPES buffer (pH=7.5), 10 mM adipate semialdehyde, 10 mM L-alanine and 100 μM pyridoxyl 5′ phosphate. Each enzyme activity assay reaction was initiated by adding a cell free extract of the ω-transaminase gene product or the empty vector control to the assay buffer containing the adipate semialdehyde and incubated at 25° C. for 4 h, with shaking at 250 rpm. The formation of pyruvate was quantified via RP-HPLC.

Row | Molecule | ω-transaminase activity for converting adipate semialdehyde to 6-aminohexanoate (formation of pyruvate, RP-HPLC)
6 | B3 | accepted adipate semialdehyde as substrate
7 | B4 | accepted adipate semialdehyde as substrate
8 | B5 | accepted adipate semialdehyde as substrate
9 | B6 | accepted adipate semialdehyde as substrate
